Data: patent publication US9063157B2, “Method for evaluating skin condition using squamous cell carcinoma antigen as marker” (Shiseido Company, Ltd., priority 2005, dated 2015)
“Also recorded” adds a separate entry of the source. Read-outs that look alike come from different tables or passages of the source. Blank lines part the entries; values can stand above or below the molecule they belong to. * marks the point of attachment. Cbz = O=C(OCc1ccccc1)*; CH2F = FC*

What was measured:
purified caspase-14 = target: T1, purified caspase-14 (Homo sapiens, UniProt P31944); test: Caspase-14 activity inhibitor assay with WEHD-MCA substrate; type: biochemical
T1 construct: human caspase-14 was purified as a heterodimer comprising a large subunit (17 KDa) and a small subunit (11 KDa); from tissue; host or cells: human heel stratum corneum (cornified cells)
T1 sequence (P31944 6-146 limits assumed): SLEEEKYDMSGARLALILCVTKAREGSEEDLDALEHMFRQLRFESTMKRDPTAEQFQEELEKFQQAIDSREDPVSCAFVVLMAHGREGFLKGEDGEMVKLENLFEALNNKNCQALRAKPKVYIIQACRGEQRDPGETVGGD
T1 sequence (P31944 153-242 limits assumed): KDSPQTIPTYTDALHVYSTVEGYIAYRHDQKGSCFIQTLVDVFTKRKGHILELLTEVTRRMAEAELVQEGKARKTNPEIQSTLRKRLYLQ
Procedure: Currently, 15 types of human caspases are known, but caspase-14 was incubated together with various peptide inhibitors for caspases (YVAD (SEQ ID NO:3), VDVAD (SEQ ID NO:4), DEVD (SEQ ID NO:5), VEID (SEQ ID NO:6), IETD (SEQ ID NO:7), LEHD (SEQ ID NO:8), DNLD (SEQ ID NO:9)), class-specific inhibitors for cysteine proteinases (IAA) or serine proteinases (AEBSF). WEHD-MCA (SEQ ID NO:10) was used as substrate in the presence of 1.3 M sodium citrate and 5 mM DTT, and the residual enzyme activity was measured. The tested enzyme concentrations were 5, 2.5 and 1.25 μM. The values were represented as mean values for multiple assays.
Caspase-14 activity was assayed by the method described in Mikolajczyk J. et al., Biochemistry 43, 10560-9 (2004), with some modifications, using Ac-WEHD-MCA as substrate. Briefly, an assay mixture was prepared from 45 μL of 0.1 M HEPES buffering solution (pH 7.5), 0.06 M NaCl, 0.01% CHAPS, 5 mM DTT, 1.3 M sodium citrate and 10 μM WEHD-MCA (all final concentrations). After adding enzyme sample (5 μl) to the mixture, it was incubated for 10-30 minutes. The reaction was suspended by addition of 150 μl of 0.1 M monochloroacetic acid, and Fluoroskan Ascent FL (Thermo Electron Co., Wolsam, Mass.) was used for measurement with a 355 nm excitation wavelength and a 460 nm luminous wavelength. For the inhibitor assay, caspase-14 and peptide inhibitor were incubated at room temperature for 15 minutes in assay buffer, and 5 μl of 100 μM WEHD-MCA was added to start the assay.
Human cornified cells (about 14 g) scraped from healthy human heel were extracted with 0.1 M Tris-HC1 (pH 8.0) containing 0.14 M NaCI, using a glass homogenizer. After centrifuging at 15,000g for 60 minutes, the supernatant was collected. It was concentrated with Amicon Ultra (Millipore, MA) and desalted with a Fast Desalting Column HR10/10 (Amersham Biosciences), and then the crude product was coated onto a HiPrep 16/10 Q XL column. The column was cleaned with 20 mM Tris-HCI (pH 8.0) and eluted with a 0-1 M linear NaCl gradient. The fraction was tracked by Western blotting using caspase-14antibody (H-99) (Santa Cruz Biotechnology, CA) and h14D^146 antibody. Each fraction was subjected to assay of hydrolytic activity on Ac Trp-Glu-His-Asp-methyl-coumarinamide (WEND-MCA) (Peptide Institute, Inc., Osaka, Japan). The positive fraction was applied to a Mono Q column equilibrated with the same buffering solution, and eluted with a NaCl gradient of up to 1M. The caspase-14 fraction was further separated by Mono S positive cation exchange chromatography. The column was equilibrated with 20mM acetic acid buffer (pH 4.5) and eluted with a 0-1 M NaCl gradient. The positive fraction was concentrated and applied to a chromatofocusing Mono P column equilibrated with 25 mM ethanolamine (pH 8.3). Next, elution was performed while forming a pH gradient from pH 8 to 5 using 46ml of Polybuffer (pH 5.0). Caspase-14 was subjected to final purification using Superdex 75 gel chromatography. The protein concentration was determined using a BioRad Protein Assay Kit (BioRad Lab, Hercules, CA).

skin equivalent models = skin equivalent models (Weil et al., 1999); cited from earlier work
caspase-14 = target: T2, caspase-14 (Homo sapiens, UniProt P31944); test: ICAD cleavage by purified caspase-14, Western blotting; type: biochemical; conditions: for inhibition of ICAD decomposition by caspase-14: prolonged incubation (up to 16 hours), kosmotropic salt
T2 construct: human caspase-14 was purified as a heterodimer comprising a large subunit (17 KDa) and a small subunit (11 KDa); from tissue; host or cells: human heel stratum corneum (cornified cells)
T2 sequence (P31944 6-146 limits assumed): T1 sequence (P31944 6-146 limits assumed)
T2 sequence (P31944 153-242 limits assumed): T1 sequence (P31944 153-242 limits assumed)
Source text: Identified were 33 KDa and 27 KDa cleavage products. […] ICAD decomposition was observed only in the presence of a kosmotropic salt.
For Western blotting and immunohistochemical analysis of ICAD, anti-ICAD IgG (FL331, Santa Cruz Biotechnology) and DFF45/ICAD Ab-2 (NeoMarkers, Fremont, Calif.) were used.
The protein was separated by SDS-polyacrylamide gel electrophoresis with a 5-20% gradient gel. After electrophoresis, the protein was transferred onto a polyvinylidene difluoride membrane (Immobilon-P, Millipore, Bedford, Mass.) and incubated together with anti-caspase-14 antibody including H-99, h14D^146 or C20. Peroxidase-labeled anti-rabbit IgG (Sigma) or anti-goat IgG was used as secondary antibody and ECL-Plus (Amersham) was used as immunoreactive protein for visualization by chemiluminescence.
The present inventors tested the effect of caspase-14 on ICAD, in the course of searching for natural substrates of caspase-14, because disappearance of nuclei is a very important event for final differentiation.

caspases 1-10 = test: Recombinant active caspases incubated with SCCA-1; type: biochemical
Source text: Benzyloxycarbonyl (Z)-YVAD-FMK, Z-YVAD-FMK, Z VDVAD-FMK, Z-DEVD-FMK, Z-VEID-FMK, Z-IETD-FMK, Z-LEHD-FMK, and Z-VAD-FMK were purchased from BioVision (Mountain View, CA). Recombinant caspases 1-10 were obtained from BIOMOL Research Labs, Inc. (Plymouth Meeting, PA).
Although SCCA-1 belongs to the serpin superfamily, it inhibits cysteine proteinases such as papain and cathepsin L (Takeda A. et al., Biol. Chem. 383, 1231-6 (2002)). […] Kosmotropic conditions were used for caspase-14. […] The enzyme activity was not recovered even with extended incubation.

caspase-3 = target: T3, caspase-3 (Homo sapiens, UniProt P42574); test: Caspase-3 activity with synthetic substrate DEVD-MCA or natural substrate ICAD; type: biochemical
T3 construct: When recombinant active caspases were incubated together with SCCA-1; purchased BIOMOL Research Labs, Inc. (Plymouth Meeting, PA)
T3 sequence (P42574 29-175 limits assumed): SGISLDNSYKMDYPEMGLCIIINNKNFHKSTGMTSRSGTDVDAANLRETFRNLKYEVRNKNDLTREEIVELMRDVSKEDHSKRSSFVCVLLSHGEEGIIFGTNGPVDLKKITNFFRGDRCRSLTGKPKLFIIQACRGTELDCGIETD
T3 sequence (P42574 176-277 limits assumed): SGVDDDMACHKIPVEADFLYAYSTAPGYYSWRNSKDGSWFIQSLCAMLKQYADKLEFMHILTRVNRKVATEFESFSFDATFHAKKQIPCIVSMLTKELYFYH
Source text: The enzymatic properties of purified caspase-14 were highly unique. Purified caspase-14exhibited relatively wide inhibitor sensitivity with respect to known caspase inhibitors. […] It was shown, for the first time, that SCCA-1 is an endogenous inhibitor of caspase-14. The property most specific to SCCA-1 is its high specificity for caspase-14. The other members, caspases 1-10, had never been reported as being affected by SCCA-1. […] This behavior is in contrast to Crm A. […] is also known to suppress several caspases including caspase-1 and caspase-8 (Gagliardini V. et al., Science 263: 826-8 (1994)). XIAP is known to inhibit caspase-3, -7, and -9 (Srinivasula S.M. et al., Nature 410: 112-6 (2001)). Since the anti-apoptotic protein p35 inhibits caspase-1, -3, -6, -7, -8, and -10, it is believed to have a wider spectrum.

[1] = WEHD-MCA substrate, 1.3 M sodium citrate, 5 mM DTT, tested concentrations 5, 2.5 and 1.25 μM

Molecule: NCCc1ccc(S(=O)(=O)F)cc1 [AEBSF, 4-(2-aminoethyl)benzenesulfonyl fluoride]
- inhibiting effect against caspase-14 activity (residual enzyme activity) (purified caspase-14; [1]): no significant inhibiting effect

Molecule: VAD-FMK: pan-caspase inhibitor (Cbz-Val-Ala-Asp-CH2F)
- inhibiting effect against caspase-14 activity (residual enzyme activity) (purified caspase-14; [1]): inhibited caspase-14 activity at about the same level as VAD-FMK; also recorded: one of the most powerful caspase-14 inhibitors
- inhibition of disappearance of nuclei (skin equivalent models): inhibited disappearance of nuclei

Molecule: Benzyloxycarbonyl (Z)-YVAD-FMK
- inhibiting effect against caspase-14 activity (residual enzyme activity) (purified caspase-14; [1]): most powerful inhibiting effect; also recorded: strongest inhibition

Molecule: VEID-FMK: peptide inhibitor for caspases (Cbz-VEID-CH2F; SMILES CC[C@H](C)[C@H](NC(=O)[C@H](CCC(=O)O)NC(=O)[C@@H](NC(=O)OCc1ccccc1)C(C)C)C(=O)N[C@@H](CC(=O)O)C(=O)CF)
- inhibiting effect against caspase-14 activity (residual enzyme activity) (purified caspase-14; [1]): virtually no effect

Molecule: O=C(O)CI [IAA, iodoacetic acid]
- inhibiting effect against caspase-14 activity (residual enzyme activity) (purified caspase-14): no significant inhibiting effect

B1: SCCA-1: recombinant squamous cell carcinoma antigen 1, an ov-serpin family papain-like cysteine protease inhibitor (protein)
chain: MNSLSEANTKFMFDLFQQFRKSKENNIFYSPISITSALGMVLLGAKDNTAQQIKKVLHFDQVTENTTGKAATYHVDRSGNVHHQFQKLLTEFNKSTDAYELKIANKLFGEKTYLFLQEYLDAIKKFYQTSVESVDFANAPEESRKKINSWVESQTNEKIKNLIPEGNIGSNTTLVLVNAIYFKGQWEKKFNKEDTKEEKFWPNKNTYKSIQMMRQYTSFHFASLEDVQAKVLEIPYKGKDLSMIVLLPNEIDGLQKLEEKLTAEKLMEWTSLQNMRETRVDLHLPRFKVEESYDLKDTLRTMGMVDIFNGDADLSGMTGSRGLVLSGVLHKAFVEVTEEGAEAAAATAVVGFGSSPTSTNEEFHCNHPFLFFIRQNKTNSILFYGRFSSP
- inhibiting effect against caspase-14 activity (residual enzyme activity) (purified caspase-14; [1]): inhibited caspase-14 activity against WEHD-MCA in a dose-dependent manner
- inhibition of ICAD cleavage by caspase-14 (caspase-14; 10 μM SCCA-1, in presence of kosmotropic salt): completely inhibited
- inhibition of ICAD decomposition by caspase-14 (caspase-14): inhibition of ICAD decomposition
- inhibition of ICAD decomposition by caspase-14 (caspase-14; listed as SCCA 1): inhibited ICAD decomposition by caspase-14
- effect on enzyme activity of caspases 1-10 (caspases 1-10): none of the caspase members (1-10) were affected in their enzyme activity
- inhibition of caspase-3 activity (caspase-3; natural substrate ICAD): did not inhibit
- inhibition of caspase-3 activity (caspase-3; synthetic substrate DEVD-MCA): did not inhibit

Now from value to molecule:

- inhibiting effect against caspase-14 activity (residual enzyme activity) (purified caspase-14; [1]): exhibited sensitivity
Molecule: DEVD-FMK: caspase-3 inhibitor

- inhibiting effect against caspase-14 activity (residual enzyme activity) (purified caspase-14; [1]): exhibited sensitivity
Molecule: IETD-FMK: caspase-8 inhibitor (Cbz-IETD-CH2F; SMILES CC[C@H](C)[C@H](NC(=O)OCc1ccccc1)C(=O)N[C@@H](CCC(=O)O)C(=O)N[C@H](C(=O)N[C@@H](CC(=O)O)C(=O)CF)[C@@H](C)O)

- inhibiting effect against caspase-14 activity (residual enzyme activity) (purified caspase-14; [1]): exhibited sensitivity
Molecule: LEHD-FMK: caspase-9 inhibitor (Cbz-LEHD-CH2F; SMILES CC(C)C[C@H](NC(=O)OCc1ccccc1)C(=O)N[C@@H](CCC(=O)O)C(=O)N[C@@H](Cc1c[nH]cn1)C(=O)N[C@@H](CC(=O)O)C(=O)CF)

- inhibiting effect against caspase-14 activity (residual enzyme activity) (purified caspase-14; [1]): exhibited sensitivity
Molecule: VDVAD-FMK: caspase-2 inhibitor (Cbz-VDVAD-CH2F; SMILES CC(C)[C@H](NC(=O)OCc1ccccc1)C(=O)N[C@@H](CC(=O)O)C(=O)N[C@H](C(=O)N[C@@H](C)C(=O)N[C@@H](CC(=O)O)C(=O)CF)C(C)C)
